The values below come from patent US20180142226.

Data set [1] addresses peptides containing PQL.
The target in data set [2] is peptides containing PQQ.
The target in data set [3] is DQ2.5-glia-α1a.
Data set [4] deals with DQ2.5-glia-ω1.
The target of data set [5] is T1, 26mer peptide of γ-gliadin.
T1 chain: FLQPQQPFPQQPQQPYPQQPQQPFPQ

For data set [6], the target named is T2, 33mer peptide of α-gliadin.
T2 chain: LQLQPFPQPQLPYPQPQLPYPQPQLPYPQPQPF

B1: Kuma021 (protein)
chain: AAPTAYTPLDVAQAYQFPEGLDGQGQCIAIIELGGGYDEASLAQYFASLGVPAPQVVSVSVDGASNQPTGDPKGPDGEVELDIEVAGALAPGAKFAVYFAPDTTAGFLDAITTAIHDPTLKPSVVSISWSGPEDSWTSAAIAAMNRAFLDAAALGVTVLAAAGDSGSTSGEQDGLYHVHFPAASPYVLACGGTRLVASGGRIAQETVWNQGPDGGATGGGVSRIFPLPAWQEHANVPPSANPGASSGRGVPDLAGNADPQTGYEVVIDGEATVTGGTSAVAPLFAALVARINQKLGKAVGYLNPTLYQLPADVFHDITEGNNDIANRAQIYQAGPGWDPCTGLGSPIGVRLLQALLPSASQPQP
Regarding B1, the “Activity Improvement over Background (Kuma020)” value in data set [1] is given as 1-2x (PQL); in data set [2] it was 1.2-2.5x (PQQ).

B2: Kuma032 (protein)
chain: AAPTAYTPLDVAQAYQFPEGLDGQGQCIAIIELGGGYDEASLAQYFASLGVPAPQVVSVSVDGASNQPTGDPEGPDGEVTLDIEVAGALAPGAKFAVYFAPDTTAGFLDAITTAIHDPTLKPSVVSISWSGPEDSWTSAAIAAMNRAFLDAAALGVTVLAAAGDQGSTSGEQDGLYHVHFPAASPYVLACGGTRLVASGGRIAQETVWNQGPDGGATGGGVSRIFPLPAWQEHANVPPSANPGASSGRGVPDLAGNADPQTGYEVVIDGEATVTGGTSAVAPLFAALVARINQKLGKAVGYLNPTLYQLPADVFHDITEGNNDIANRAQIYQAGPGWDPCTGLGSPIGVRLLQALLPSASQPQP
For the protein B2, the “concentration of peptide breakdown product PFPQPQ over time” value in data set [3] is “Kuma032 and Kuma042 demonstrate comparable activity as Kuma030 and Kuma040”. Further, the “Activity Improvement over Background (Kuma031)” value in data set [1] was “No change (PQL);”.

B3: Kuma042 (protein)
chain: AAPTAYTPLDVAQAYQFPEGLDGQGQCIAIIELGGGYDEASLAQYFASLGVPAPQVVSVSVDGASNQPTGDPKGPDGEVTLDIEVAGALAPGAKFAVYFAPDTTAGFLDAITTAIHDPTLKPSVVSISWAGPEDSWTSAAIAAMNRAFLDAAALGVTVLAAAGDSGSTGGEQDGLYHVFFPAASPYVLACGGTRLVASGGRIAQETVWNQGPDGGATGGGVSRIFPLPAWQEHANVPPSANPGASSGRGVPDLAGNADPQTGYEVVIDGEATVTGGTSAVAPLFAALVARINQKLGKAVGYLNPTLYQLPADVFHDITEGNNDIANRAQIYQAGPGWDPCTGLGSPIGVRLLQALLPSASQPQP
On to B3, for which, in data set [3], the “concentration of peptide breakdown product PFPQPQ over time” value was “Kuma042 even shows a slight increase in activity against this substrate compared to Kuma040”. For the same protein, the “Activity Improvement over Background (Kuma041)” value in data set [1] is 1.2-1.5x (PQL).

B4: Kuma031 (protein)
chain: AAPTAYTPLDVAQAYQFPEGLDGQGQCIAIIELGGGYDEASLAQYFASLGVPAPQVVSVSVDGASNQPTGDPEGPDGEVTLDIEVAGALAPGAKFAVYFAPDTTAGFLDAITTAIHDPTLKPSVVSISWSGPEDSWTSAAIAAMNRAFLDAAALGVTVLAAAGDQGSTSGEQDGLYHVHFPAASPYVLACGGTRLVASGGRIAQETVWNQGPDGGATGGGVSRIFPLPAWQEHANVPPSANPGASSGRGVPDLAGNADPQTGYEVVIDGEATVTGGTSAVAPLFAALVARINQKLGKAVGYLNPTLYQLPADVFHDITEGNNDIANRAQIYQAGPGWDPCTGLGSPIGVRLLQALLPSASQPQP
For B4, the “Activity Improvement over Background (Kuma030)” value in data set [1] is on record as “No change (PQL);”.

B5: Kuma041 (protein)
chain: AAPTAYTPLDVAQAYQFPEGLDGQGQCIAIIELGGGYDEASLAQYFASLGVPAPQVVSVSVDGASNQPTGDPKGPDGEVTLDIEVAGALAPGAKFAVYFAPDTTAGFLDAITTAIHDPTLKPSVVSISWAGPEDSWTSAAIAAMNRAFLDAAALGVTVLAAAGDSGSTGGEQDGLYHVFFPAASPYVLACGGTRLVASGGRIAQETVWNQGPDGGATGGGVSRIFPLPAWQEHANVPPSANPGASSGRGVPDLAGNADPQTGYEVVIDGEATVTGGTSAVAPLFAALVARINQKLGKAVGYLNPTLYQLPADVFHDITEGNNDIANRAQIYQAGPGWDPCTGLGSPIGVRLLQALLPSASQPQP
Take B5: in data set [1], the “Activity Improvement over Background (Kuma040)” value is recorded as 1.0-1.2x (PQL).

B6: Kuma010 (protein)
chain: AAPTAYTPLDVAQAYQFPEGLDGQGQCIAIIELGGGYDEASLAQYFASLGVPAPQVVSVSVDGASNQPTGDPKGPDGEVELDIEVAGALAPGAKFAVYFAPDTTAGFLDAITTAIHDPTLKPSVVSISWSGPEDSWTSAAIAAMNRAFLDAAALGVTVLAAAGDSGSTGGEQDGLYHVHFPAASPYVLACGGTRLVASGGRIAQETVWNDGPDGGATGGGVSRIFPLPAWQEHANVPPSANPGASSGRGVPDLAGNADPATGYEVVIDGEATVIGGTSAVAPLFAALVARINQKLGKAVGYLNPTLYQLPADVFHDITEGNNDIANRAQIYQAGPGWDPCTGLGSPIGVRLLQALLPSASQPQGSTENLYFQSGALEHHHHHH
Take B6: in data set [3], the Kcat amounted to 3.7 s⁻¹; the Km (in general, the substrate concentration at which the rate is half of its maximum) worked out at 4.6 mM; the Vmax (usually the top rate of the reaction or transport when substrate is in excess) came to 3.7e-07 M/s; the kcat/Km (in general, the second-order rate constant that governs catalysis at low substrate concentration) stood at 819 M⁻¹ s⁻¹. In data set [4], the Kcat turned out to be 1.2 s⁻¹, the Km amounted to 16.4 mM, the Vmax turned out to be 1.22e-07 M/s and the kcat/Km stood at 74 M⁻¹ s⁻¹.

B7: Kuma020 (protein)
chain: AAPTAYTPLDVAQAYQFPEGLDGQGQCIAIIELGGGYDEASLAQYFASLGVPAPQVVSVSVDGASNQPTGDPKGPDGEVELDIEVAGALAPGAKFAVYFAPDTTAGFLDAITTAIHDPTLKPSVVSISWSGPEDSWTSAAIAAMNRAFLDAAALGVTVLAAAGDSGSTSGEQDGLYHVHFPAASPYVLACGGTRLVASGGRIAQETVWNDGPDGGATGGGVSRIFPLPAWQEHANVPPSANPGASSGRGVPDLAGNADPATGYEVVIDGEATVTGGTSAVAPLFAALVARINQKLGKAVGYLNPTLYQLPADVFHDITEGNNDIANRAQIYQAGPGWDPCTGLGSPIGVRLLQALLPSASQPQPGSTENLYFQSGALEHHHHHH
In the case of B7, the “appearance of peptide breakdown products over time” value (shortened to “appearance … over time”) in data set [5] and in data set [6] was “Kuma020 demonstrated a moderate amount of activity on both peptides” throughout. Also, the “Activity Improvement over Background (Kuma010)” value in data set [1] was 7-19x (PQL); in data set [2], 15-35x (PQQ).

B8: Kuma050 (protein)
chain: AAPTAYTPLDVAQAYQFPEGLDGQGQCIAIIELGGGYDEASLAQYFASLGVPAPQVVSVSVDGASNQPTGDPEGPDGEVTVDIEVAGALAPGAKFAVYFAPDTTAGFLDAITTAIHDPTLKPSVVSISWSGPEDSWTSAAIAAMNRAFLDAAALGVTVLAAAGDQGSTSGEQDGLYHVHFPAASPYVLACGGTRLVASGGRIAQETVWNQGPDGGATGGGVSRIFPLPAWQEHANVPPSANPGASSGRGVPDLAGNADPQTGYEVVIDGEATVIGGTSAVAPLFAALVARINQKLGKAVGYLNPTLYQLPADVFHDITEGNNDIANRAQIYQAGPGWDPCTGLGSPIGVRLLQALLPSASQPQPGSTENLYFQSGALEHHHHHH
As to B8, the “appearance … over time” value in data set [5] is “very poor activity on the 26mer peptide”. In addition, the “appearance … over time” value in data set [6] was “Kuma050 demonstrated good activity on the 33mer peptide”. In data set [3], the Kcat stood at 14.2 s⁻¹, the Km amounted to 2.5 mM, the Vmax was determined as 1.42e-06 M/s and the kcat/Km is 5610 M⁻¹ s⁻¹. In data set [4], the Kcat was 27.8 s⁻¹, the Km was 5 mM, the Vmax is 2.78e-06 M/s and the kcat/Km was found to be 56 M⁻¹ s⁻¹. The “Activity Improvement over Background (Kuma021)” value in data set [1] is reported as 1.5-2x (PQL). For the same protein, the “Activity Improvement over Background (Kuma021)” value in data set [2] was 0.01-0.2x (PQQ).

B9: Kuma070 (protein)
chain: AAPTAYTPLDVAQAYQFPEGLDGQGQCIAIIELGGGYDEASLAQYFASLGVPAPQVVSVSVDGASNQPTGDPKGPDGEVTLDIEVAGALAPGAKFAVYFAPDTTAGFLDAITTAIHDPTLKPSVVSISWAMPEDSWTSAAIAAMNRAFLDAAALGVTVLAAAGDSGSTGGEQDGLYHVFFPAASPYVLACGGTRLVASGGRIAQETVWNQGPDGGATGGGVSRIFPLPAWQEHANVPPSANPGASSGRGVPDLAGNADPQTGYEVVIDGEATVTGGTSAVAPLFAALVARINQKLGKAVGYLNPTLYQLPADVFHDITEGNNDIANRAQIYQAGPGWDPCTGLGSPIGVRLLQALLPSASQPQPGSTENLYFQSGALEHHHHHH
B9: the “Activity Improvement over Background (Kuma040)” value was 2-3x (PQL) in data set [3] and 2-4x (PQQ) in data set [4].

B10: Kuma040 (protein)
chain: AAPTAYTPLDVAQAYQFPEGLDGQGQCIAIIELGGGYDEASLAQYFASLGVPAPQVVSVSVDGASNQPTGDPKGPDGEVTLDIEVAGALAPGAKFAVYFAPDTTAGFLDAITTAIHDPTLKPSVVSISWAGPEDSWTSAAIAAMNRAFLDAAALGVTVLAAAGDSGSTGGEQDGLYHVFFPAASPYVLACGGTRLVASGGRIAQETVWNQGPDGGATGGGVSRIFPLPAWQEHANVPPSANPGASSGRGVPDLAGNADPQTGYEVVIDGEATVTGGTSAVAPLFAALVARINQKLGKAVGYLNPTLYQLPADVFHDITEGNNDIANRAQIYQAGPGWDPCTGLGSPIGVRLLQALLPSASQPQPGSTENLYFQSGALEHHHHHH
Take B10: the “appearance … over time” value in data set [5] and in data set [6] was “Kuma040 demonstrated activity almost as potent as Kuma030 especially against the 26mer peptide” each time. The values for the Kcat in data set [3] and in data set [4] were 16.3 s⁻¹ and 24.6 s⁻¹, respectively. Moreover, the results for the Km in data set [3] and in data set [4] were 0.86 mM and 15.3 mM, respectively. Besides, the maximal velocity (Vmax) in data set [3] was determined as 1.49e-06 M/s; in data set [4], 2.46e-06 M/s. The values for the kcat/Km in data set [3] and in data set [4] were 19100 M⁻¹ s⁻¹ and 1600 M⁻¹ s⁻¹, respectively. For the same protein, the “Activity Improvement over Background (Kuma010)” value is given as 35-50x (PQL) in data set [1] and 30-40x (PQQ); in data set [2].
